Measurements from US20230190881A1 (BIOTEST, published 2023).
Values belong to the binder of their own block, whether it stands above or below them.

Target: T1, human serum albumin (HSA) (human, UniProt P02768 25-609)
T1 construct: also called human albumin; Albiomin 20%
Experiment: FVIII antigen ELISA on plasma samples; albumin binding inferred from reduced detection

binding result: binds
B1: AD2CD2_SC (other)
chain: ATRRYYLGAVELSWDYMQSDLGELPVDARFPPRVPKSFPFNTSVVYKKTLFVEFTDHLFNIAKPRPPWMGLLGPTIQAEVYDTVVITLKNMASHPVSLHAVGVSYWKASEGAEYDDQTSQREKEDDKVFPGGSHTYVWQVLKENGPMASDPLCLTYSYLSHVDLVKDLNSGLIGALLVCREGSLAKEKTQTLHKFILLFAVFDEGKSWHSETKNSLMQDRDAASARAWPKMHTVNGYVNRSLPGLIGCHRKSVYWHVIGMGTTPEVHSIFLEGHTFLVRNHRQASLEISPITFLTAQTLLMDLGQFLLFCHISSHQHDGMEAYVKVDSCPEEPQLRMKNNEEAEDYDDDLTDSEMDVVRFDDDNSPSFIQIRSVAKKHPKTWVHYIAAEEEDWDYAPLVLAPDDRSYKSQYLNNGPQRIGRKYKKVRFMAYTDETFKTREAIQHESGILGPLLYGEVGDTLLIIFKNQASRPYNIYPHGITDVRPLYSRRLPKGVKHLKDFPILPGEIFKYKWTVTVEDGPTKSDPRCLTRYYSSFVNMERDLASGLIGPLLICYKESVDQRGNQIMSDKRNVILFSVFDENRSWYLTENIQRFLPNPAGVQLEDPEFQASNIMHSINGYVFDSLQLSVCLHEVAYWYILSIGAQTDFLSVFFSGYTFKHKMVYEDTLTLFPFSGETVFMSMENPGLWILGCHNSDFRNRGMTALLKVSSCDKNTGDYYEDSYEDISAYLLSKNNAIEPRSFSQNPPVLSKNNAIEPRSFSQNSRHPSLAEAKEAANAELDSYGVSDFYKRLIDKAKTVEGVEALKDAILAALPGSGGSGGSGGSGSGSKNNAIEPRSFSQNSRHPSGSGGSGGSGGSGSLAEAKEAANAELDSYGVSDFYKRLIDKAKTVEGVEALKDAILAALPSKNNAIEPRSFSQNSRHPSQSDQEEIDYDDTISVEMKKEDFDIYDEDENQSPRSFQKKTRHYFIAAVERLWDYGMSSSPHVLRNRAQSGSVPQFKKVVFQEFTDGSFTQPLYRGELNEHLGLLGPYIRAEVEDNIMVTFRNQASRPYSFYSSLISYEEDQRQGAEPRKNFVKPNETKTYFWKVQHHMAPTKDEFDCKAWAYFSDVDLEKDVHSGLIGPLLVCHTNTLNPAHGRQVTVQEFALFFTIFDETKSWYFTENMERNCRAPCNIQMEDPTFKENYRFHAINGYIMDTLPGLVMAQDQRIRWYLLSMGSNENIHSIHFSGHVFTVRKKEEYKMALYNLYPGVFETVEMLPSKAGIWRVECLIGEHLHAGMSTLFLVYSNKCQTPLGMASGHIRDFQITASGQYGQWAPKLARLHYSGSINAWSTKEPFSWIKVDLLAPMIIHGIKTQGARQKFSSLYISQFIIMYSLDGKKWQTYRGNSTGTLMVFFGNVDSSGIKHNIFNPPIIARYIRLHPTHYSIRSTLRMELMGCDLNSCSMPLGMESKAISDAQITASSYFTNMFATWSPSKARLHLQGRSNAWRPQVNNPKEWLQVDFQKTMKVTGVTTQGVKSLLTSMYVKEFLISSSQDGHQWTLFFQNGKVKVFQGNQDSFTPVVNSLDPPLLTRYLRIHPQSWVHQIALRMEVLGCEAQDLYSKNNAIEPRSFSQNSRHPSLAEAKEAANAELDSYGVSDFYKRLIDKAKTVEGVEALKDAILAALPGSGGSGGSGGSGSGSKNNAIEPRSFSQNSRHPSGSGGSGGSGGSGSLAEAKEAANAELDSYGVSDFYKRLIDKAKTVEGVEALKDAILAALP

binding result: binds
B2: AD2CD2-19M_SC (other)
chain: ATRRYYLGAVELSWDYMQSDLGELPVDARFPPRVPKSFPFNTSVVYKKTLFVEFTDHLFSIAKPRPPWMGLLGPTIQAEVYDTVVITLKNMATHPVSLHAVGVSYWKASEGAEYDDQTSQREKEDDKVFPGGSHTYVWQVSKENGPMASDPQCLTYSYLSHVDLAKDLNSGLIGALLVCREGSLAKEKTQTLHKFILLFAVFDEGKSWHSETKDSLMQDRDAASARAWPKMHTVNGYVNRSLPGLTGCHRKSVYWHVIGMGTTPEVHSIFLEGHTFLVRDHRQASLEISPITFLTAQTLLMDLGQFLLFCHISSHQHDGMEAYVKVDSCPEEPQLRMKNNEEAEDYDDDLTDSEMDVVRFDDDNSPSFIQIRSVAKKHPKTWVHYIAAEEEDWDYAPLVLAPDDRSHKSQYLNNGPQRIGRKYKKVRFMAYTDETFKTREAIQHESGILGPLLYGEVGDTLLIIFKNQASRPYNIYPHGITDVRPLYERRLPKGVKHLKDFPILPGEIFKYKWTVTVEDGPTKSDPRCLTRYYSSHVNMERDLASGLIGPLLICYKESVDQRGNQIMSDKRNVILFSVFDENRSWYLTENIQRFLPEPAGVQLEDPEFQASNIMHSINGYVFDSLQLSVCLHEVAYWYILSIGAQTDFLSVFFSGYTFKHKMVYEDTLTLFPFSGETVFMSMENPGNWILGCHNSDFRNRGMTALLKVSSCDKNTGDYYEDSYEDISASLLSKNNAIEPRSFSQNPPVLSKNNAIEPRSFSQNSRHPSLAEAKEAANAELDSYGVSDFYKRLIDKAKTVEGVEALKDAILAALPGSGGSGGSGGSGSGSKNNAIEPRSFSQNSRHPSGSGGSGGSGGSGSLAEAKEAANAELDSYGVSDFYKRLIDKAKTVEGVEALKDAILAALPSKNNAIEPRSFSQNSRHPSQSDQEEIDYDDTISVEMKKEDFDIYDEDENQSPRSFQKKTRHYFIAAVERLWDYGMSSSPHVLRNRAQSGSVPQFKKVVFQEFTDGSFTQPLYRGELNEHLGLLGPYIRAEVEDNIMVTFRNQASRPYSFYSSLISYEEDQRQGAEPRKNFVKPNETKTYFWEVQHHMAPTKDEFDCKAWAYFSDVDLEKDVHSGLIGPLLVCHTNTLNPAHGRQVTVQEFALFFTIFDETKSWYFTENMERNCRAPCNIQMEDPTFKENYRFHAINGYIMDTLPGLVMAQDQRIRWYLLSMGSNENIHSIHFSGHVFTVRKKEEYKMALYNLYPGVFETVEMLPSKAGIWRVECLIGEHLHAGMSTLFLVYSDKCQTPLGMASGHIRDFQITASGQYGQWAPKLARLHYSGGINAWSTKEPFSWIKVDLLAPMIIHGIKTQGARQKFSSLYISQFIIMYSLDGKKWQTYRGNSTGTLMVFFGNVDSSGIKHNIFNPPIIARYIRLHPTHYSIRSTLRMELMGCDLNSCSMPLGMESKAISDAQITASSYFTNMFATWSPSKARLHLQGRSNAWRPQVNNPKEWLQVDFQKTMKVTGVTTQGVKSLLTSMYVKEFLISSSQDGHQWTLFFQNGKVKVFQGNQDSFTPVVNTLDPPLLTRYLRIHPQSWAHQIALRMEVLGCEAQDLYSKNNAIEPRSFSQNSRHPSLAEAKEAANAELDSYGVSDFYKRLIDKAKTVEGVEALKDAILAALPGSGGSGGSGGSGSGSKNNAIEPRSFSQNSRHPSGSGGSGGSGGSGSLAEAKEAANAELDSYGVSDFYKRLIDKAKTVEGVEALKDAILAALP
notes: also called de-immunized FVIII-ABD fusion molecule
